Results from PMC4416025, “Characterization of Hydrogen Metabolism in the Multicellular Green Alga Volvox carteri” (PLoS ONE, 2015).

Key:
[1] = tested on: T1, C[n+]1ccc(-c2cc[n+](C)cc2)cc1; assay: H2 evolution assay, gas chromatography; assay type: biochemical, Volvox carteri; settings: electron donor, methyl viologen reduced in situ by sodium dithionite; anaerobic
T1 construct: cDNA-derived, N-terminal 6xHis tag with GGG linker; sense cloning primer encodes tag then KCTSAV (no start Met, N-terminus probably truncated); maturation possibly incomplete

[2] = tested on: T2, C[n+]1ccc(-c2cc[n+](C)cc2)cc1; assay: H2 evolution assay, gas chromatography; assay type: biochemical, Volvox carteri; settings: electron donor, methyl viologen reduced in situ by sodium dithionite; anaerobic
T2 construct: cDNA-derived, N-terminal 6xHis tag with GGG linker; sense cloning primer encodes tag then MDELDKP; tag removal not mentioned

Substance: HYDA2 (Volvox carteri f. nagariensis)
- Km [1]: 2820 µM

Substance: HYDA1 (Volvox carteri f. nagariensis)
- Km [2]: 2760 µM
